Source: patent US7048919B2, “Osteoclast secreted chemokine and uses thereof” (The UAB Research Foundation, priority 2000, dated 2006)

Experiments:
[1] = system: mesenchymal stem cells (osteoblast precursors); assay: Transwell migration assay of calcein-loaded mesenchymal stem cells; type: cell-based
Method: Mesenchymal stem cells were loaded in the presence of 5 μM calcein in αMEM, and the cells washed twice with media. Cells were plated at 10,000 cells/well in the upper well of Neuroprobe transwell plates. The concentration dependence of mim-1 in migration assays was determined in the transwell migration assay with the indicated concentrations of mim-1 in the bottom chamber. Cells were cultured for 4 hours at 37° C. in a humidified chamber with 5% CO2. Remaining cells were scraped from the upper well and removed. Migration was measured on a fluorescence plate-reader which measures fluorescence in the bottom well and migration was quantified by comparisons with a standard curve generated by serial dilutions of calcein loaded cells plated directly in the bottom chamber. Data is from a single experiment performed in quadruplicate.

mesenchymal stem cells = assay: Cell proliferation of osteoblast precursor cells; type: cell-based; conditions: concentrations up to 2 μg/ml
[2] = system: p42/44 MAP-kinase in MG63 cells; assay: p42/p44 MAP kinase activation, phospho-specific Western blot; type: cell-based, human
Method: Cells were treated with 2 μg/ml of purified mim-1 for the indicated times, washed, lysed and 25 […] protein resolved on 10% SDS PAGE. Protein was transferred to PVDF membrane and the membranes probed with phospho-specific p42/p44 MAP kinase antibody (New England Biolabs).
Mim-1 also stimulated the increased p42/44 MAP-kinase phosphorylation in a time-dependent manner in MG63 cells. The time dependence of mim-1 activation of MAP kinase by Western analysis with the phospho specific MAP kinase antibody was tested. This antibody detects only the phosphorylated (activated) form of MAP kinase (FIG. 16). Mim-1 stimulates the time dependent activation of MAP kinase with maximal effects at 3 minutes (compare this with 2 μg/ml in FIG. 15). The concentration dependence for activation of MAP kinase was maximal at 1–2 μg/ml (not shown) similar to the effects of mim-1 on tyrosine phosphorylation (FIG. 15).

[3] = system: cbfal binding to osteocalcin promoter in MG63 cells; assay: cbfal binding to osteocalcin promoter site, electrophoretic mobility shift assay; type: cell-based, human
Method: (§1) FIG. 17A show cells treated with 2 μg/ml of purified mim-1 for 0, 10, 30, 60, 120, and 240 min washed, lysed and nuclear extracts prepared. A 27 bp oligonucleotide from the osteocalcin proximal cbfal binding site was 5′ end labeled with γ^32P-ATP by T4 kinase. Equivalent amounts of nuclear extracts were incubated with the probe for 30 min and samples resolved on a 5% gel, fixed, dried and binding visualized by autoradiography.
as §1, with “Cells were treated” for “FIG. 17A show cells treated”, “240 min,” for “240 min”, “with ^32P-ATP” for “with γ^32P-ATP”, “by autoradiography for specific binding.” for “by autoradiography.”
Similarly, cells were treated with 0, 0.02, 0.3 and 2.0 μg/ml of mim-1 for 2 hrs and mobility shifts done as discussed.

[4] = system: Vitamin D receptor binding to the VDRE in MG63 cells; assay: Vitamin D receptor binding to the VDRE, electrophoretic mobility shift assay; type: cell-based, human; conditions: 2 μg/ml mim-1, absence of added 1,25(OH)2 D3
Method: Competitive displacement (CD) of vitamin D receptor interaction by 100× of cold probe. […] CD is competitive displacement as in FIG. 18A and NS is incubaton with 100× NonSpecific probe (vitellogenin estrogen response element), both were included as controls with 2 hr mim-1 extracts.
Double stranded oligonucleotide probe, corresponding to the VDRE from the human osteocalcin promoter, is ^32P-labeled with T4 kinase and incubated with nuclear extracts from MG-63 cells treated with 2 μg/ml of mim-1 for 0, 10, 30, 60 and 120 minutes, respectively. Vitamin D receptor interaction was displaced competitively by 100× of cold probe. The cells were then treated with mim-1 for 2 to 3 hrs and VDR/VDRE supershifted with a 1:5 or 1:10 dilution of VDR polyclonal antibody 4707. Competitive displacement with cold probe and incubaton with 100× vitellogenin estrogen response element as a non-specific probe were included as […] controls with 2 hr mim-1 extracts. VDR/VDRE from MG63 cells was compared to recombinant VDR heterodimer (rVDRhd).

MC3T3-E1 cells = assay: In vitro matrix mineralization (VonKossa staining, total calcium); type: cell-based; conditions: 16 days
Method: MC3T3-E1 cells (2.5×10^4 cells/well) were cultured in DMEM/F12 plus 1% FBS in the presence of 10 mM glycerophosphate, 50 μg/ml ascorbic acid and either, 0, 3 or 15 nM (FIGS. 19A–C, respectively) of purified mim-1 for 16 days. […] 200× magnification, data is representative of n=2 experiments. VonKossa staining was confirmed by measuring total calcium in each well. Calcium was acid hydrolyzed, neutralized and measured on a Kodak Ektachem DTSC II and the results illustrated in the bar graph at the right. Calcium measurements are representative single determinations from 2 separate experiments.
MC3T3-E1 cells, seeded at 2.5×10^4 cells/well, were cultured in DMEM/F12 plus 1% FBS in the presence of 10 mM glycerophosphate, 50 μg/ml ascorbic acid and either 0, 3 or 15 nM of purified mim-1 for 16 days. […] VonKossa staining was confirmed by measuring total calcium in each well. The calcium was acid hydrolyzed, neutralized and measured on a Kodak Ektachem DTSC II.

human bone marrow cells = assay: FACS analysis of human bone marrow cell cultures (CD14+); type: cell-based; conditions: 2 μg/ml mim-1, 3 days
Method: Human bone marrow cells were cultured in IMDM with GM-CSF (50 ng/ml), IL3 (10 ng/ml) and 20 ng/ml SCF (controls) for 3 days −/+2 […] mim-1 and analyzed by FACS analysis. The remaining cells were cultured in colony formation assays an additional 14 days with the same growth factors minus or plus 2 μg/ml mim-1. Data is the average −/+ SEM of 3 separate experiments.
Human bone marrow cells were cultured in IMDM with GM-CSF (50 ng/ml), IL3 (10 ng/ml) and […] SCF (controls) for 3 days with or without 2 μg/ml mim-1. The cells were analyzed by FACS analysis. The remaining cells were cultured in colony formation assays an additional 14 days with the same growth factors with or without 2 μg/ml mim-1.

A549, lung cancer = assay: Cancer cell growth inhibition, cell counts; type: cell-based, human; conditions: A549, three days, 0.5-4 μg/ml mim-1
Method: (§2) Cancer cells (A549, lung cancer; MDA231, Breast cancer; and AD10, ovarian cancer) were cultured for three days in the presence of the indicated concentrations of mim-1. Cells were counted in 10 random grids, and the data is plotted as Percent of Control (no added mim-1). Data are representative of 2 separate experiments.
(§3) Three cancer cell lines (A549, lung cancer; MDA231, breast cancer; and AD10, ovarian cancer) were cultured for three days in the presence of 0 (control), 0.5, 1, 2 and 4 μg/ml of mim-1. Cells were counted in 10 random grids, and the data is plotted as Percent of Control (no added mim-1).

AD10, ovarian cancer = assay: Cancer cell growth inhibition, cell counts; type: cell-based, human; conditions: AD10, three days, 0.5-4 μg/ml mim-1
Method: as §2, §3

MDA231, breast cancer = assay: Cancer cell growth inhibition, cell counts; type: cell-based, human; conditions: MDA231, three days, 0.5-4 μg/ml mim-1
Method: as §2, §3

mouse marrow macrophage = assay: Osteoclast-like cell differentiation, mouse marrow macrophage differentiation model; type: cell-based; conditions: presence of M-CSF and soluble RANKL

B1: mim-1: 35 kD osteoclast secreted chemokine-like protein, SEQ ID NO: 8, homologous with Lect2 (protein, listed as Gallus gallus)
chain: MPALSLIALLSLVSTAFARQWEVHPPQQQGRHWAQICSGNPFNRIRGCDRYGCGNYGASRQGKGEKHKGVDVICTDGSIVYAPFWGQLSGPIRFFHNGNAIDDGVQISGSGYCVKLVCIHPIRYHGQIQKGQQLGRMLPMQKVFPGIVSHIHVENCDQSDPTHLLRPIPDISPPFPQQDAHWAVVCAGNPTNEIRGCKDYGCGYFGAPRRNGKGEKHKGVDVICADGATVYAPFSGELSGPVKFFHNGNAIDDGVGIRGSGFCVKLLCIHPIRYNGRISKGQVLGRMLPMQRVFPGIISHIHVENCDRSDPTSNLERGKGESEMEV
modifications: amino acid sequence of mim-1 protein
concentration of maximal effect on mesenchymal stem cell migration ([1]; 4 hours, purified mim-1 in bottom chamber): approximately 100 ng/ml
concentration to stimulate migration lower than that to stimulate tyrosine phosphorylation ([1]; migration versus tyrosine phosphorylation): five- and ten-fold
effect on cell proliferation (mesenchymal stem cells): no effect
time of maximal activation of MAP kinase ([2]; 2 μg/ml mim-1): 3 min
concentration of maximal activation of MAP kinase ([2]; not shown): 1 to 2 µg/mL
cbfal binding above control levels ([3]; 20 ng/ml mim-1, 2 hrs): ~2 fold
concentration to stimulate cbfal binding lower than that to stimulate tyrosine phosphorylation ([3]; 20 ng/ml versus tyrosine phosphorylation): 5–10 fold
time of maximal cbfal binding ([3]; 2 μg/ml mim-1): 2 h
increase in binding of cbfal transcription factor to osteocalcin oligonucleotide probe ([3]; 2 μg/ml mim-1, MG63 cells): five-fold
decrease in cbfal binding from maximum ([3]; 2 μg/ml mim-1, by 4 hours): ~30%
Vitamin D receptor binding to the VDRE [4]: stimulated Vitamin D receptor binding to the VDRE in a time dependent manner
concentration of maximal effect on mineralization (MC3T3-E1 cells): 0.5 µg/mL
proportion of CD14+ cells (human bone marrow cells): increase in the proportion of cells that are CD14^+
inhibition of cell growth (A549, lung cancer): concentration dependent inhibition of cell growth
inhibition of cell growth (AD10, ovarian cancer): concentration dependent inhibition of cell growth
inhibition of cell growth (MDA231, breast cancer): concentration dependent inhibition of cell growth
osteoclast-like cell differentiation (mouse marrow macrophage): effectively blocks osteoclast-like cell differentiation
